These results are taken from patent publication US8273705B2, “Conversion of apoptotic proteins” (The Burnham Institute, priority 2002, dated 2012).

Experiment [1] relates to NCI-H460 lung cancer cells. As to the kind of experiment: GFP-TR3/ΔDBD mitochondrial targeting in NCI-H460 lung cancer cells. To be noted: transient transfection. Format: cell-based. The procedure: (§1) Subcellular localization assays—Cells were seeded onto cover-slips in 6-well plates overnight, then transiently transfected with GFP-fusion expression plasmids. After 16 hours, cells were washed with PBS and fixed in 4% paraformaldehyde. For mitochondrial staining, cells were then incubated with anti-Hsp60 goat IgG (Santa Cruz, USA), followed by anti-goat IgG conjugated with Cy3 (Sigma). For cyt c staining, cells were incubated with monoclonal anti-cyt c IgG (PharMingen), followed by anti-mouse IgG conjugated with Cy5 (Amersham). Fluorescent images were collected and analyzed using a MRC-1024 MP laser-scanning confocal microscope (Bio-Rad). Subcellular fractionation assays were performed as described (Li, et al. 2000 Science 289:1159-1164). Briefly, cells (1×10^7 cells) suspended in 0.5 ml hypotonic buffer (5 mM Tris-HCl, pH 7.4, 5 mM KCl, 1.5 mM MgCl2, 0.1 mM EGTA, pH 8.0, and 1 mM DTT) were homogenized and cell extracts were centrifuged at 500×g for 5 min. The resulting supernatant was centrifuged at 10,000×g for 30 min at 4° C. to obtain the HM fraction. […]
Given the results of these studies, it was desirable to determine whether TR3 exerts its apoptotic effect in lung cancer cells as in prostate cancer cells by targeting to mitochondria. […] The cells were stained for mitochondria (Hsp60) and cytochrome c (Cyt c), and analyzed by confocal microscopy. […]

The next experiment relates to ZR-75-1 cells. As to the kind of experiment: GFP-TR3/ΔDBD localization and cytochrome c release in ZR-75-1 cells. Format: cell-based. The following applies: ZR-75-1, absence of any treatment. The procedure: as §1, with “min.” for “min. The resulting supernatant was centrifuged at 10,000×g for 30 min at 4° C. to obtain the HM fraction.”
To study whether the TR3 nuclear-to-mitochondrial targeting pathway also occurs in breast cancer cells, a GFP-TR3 fusion construct was transfected into MDA-MB-231 cells. […] Next, GFP-TR3/ΔDBD was transiently transfected into ZR-75-1 or MDA-MB-231 cells, stained for mitochondria (Hsp60) and cytochrome c (Cyt c), and analyzed by confocal microscopy.

A further experiment has as its target T1, Bcl-2/1-80 (Homo sapiens, UniProt P10415).
T1 construct: a fragment of Bcl-2 comprising the first 80 amino acids (Bcl-2/1-80); expressed in transfected cells; host or cells: HEK293T
As to the kind of experiment: Co-IP assay with Bcl-2/1-80. Type of experiment: binding. The procedure:
(§2) Therefore, TR3/ΔDBD was analyzed as to its interaction with a fragment of Bcl-2 comprising the first 80 amino acids (Bcl-2/1-80). […] The Bcl-2/1-80 fragment encompasses the N-terminal BH4 domain followed by an unstructured loop domain of approximately 50 amino acids length. To determine whether the BH4 domain or the loop region was responsible for binding to TR3/ΔDBD, TR3/ΔDBD interaction with Bcl-2 mutants lacking the BH4 domain (Bcl-2/ΔBH4) or the loop region (Bcl-2/ΔLoop) was analyzed. […] Thus, the loop region of Bcl-2 is involved in binding to TR3.
Deletion of the loop region of Bcl-2 completely blocks paclitaxel-induced apoptosis (Rakesh et al. 1999 PNAS USA 96:3775-3780). To further investigate whether the loop region of Bcl-2 is responsible for its interaction with TR3/ΔDBD, TR3/ΔDBD was co-transfected with the first 80-residue fragment of Bcl-2 including the loop region and BH4 domain.

The subject of another experiment is Bcl-2/ΔLoop. As to the kind of experiment: Co-IP assay with Bcl-2/ΔLoop. Format: binding. On the procedure:
as §2

The test system of another experiment is 293T cells. The experiment in a line: Cytochrome c release in 293T cells (confocal microscopy). Type of experiment: cell-based, human. The procedure: Subcellular localization assays—Cells were seeded onto cover-slips in 6-well plates overnight, then transiently transfected with GFP-fusion expression plasmids. After 16 hours, cells were washed with PBS and fixed in 4% paraformaldehyde. For mitochondrial staining, cells were then incubated with anti-Hsp60 goat IgG (Santa Cruz, USA), followed by anti-goat IgG conjugated with Cy3 (Sigma). For cyt c staining, cells were incubated with monoclonal anti-cyt c IgG (PharMingen), followed by anti-mouse IgG conjugated with Cy5 (Amersham). Fluorescent images were collected and analyzed using a MRC-1024 MP laser-scanning confocal microscope (Bio-Rad). Subcellular fractionation assays were performed as described (Li, et al. 2000 Science 289:1159-1164). Briefly, cells (1×10^7 cells) suspended in 0.5 ml hypotonic buffer (5 mM Tris-HCl, pH 7.4, 5 mM KCl, 1.5 mM MgCl2, 0.1 mM EGTA, pH 8.0, and 1 mM DTT) were homogenized and cell extracts were centrifuged at 500×g for 5 min. The resulting supernatant was centrifuged at 10,000×g for 30 min at 4° C. to obtain the HM fraction. HM fraction was resuspended in 100 μl lysis buffer (10 mM Tris, pH 7.4, 150 mM NaCl, 1% Triton X-100, 5 mM EDTA, pH 8.0) for immunoblotting analysis.
The involvement of TR3/Bcl-2 interaction in TR3-induced cytochrome c release was also studied. […] Nor did transient expression of Bcl-2 alone.

Experiment [2] deals with MCF-7 breast cancer cells. As to the kind of experiment: DAPI apoptosis assay in MCF-7 cells. Format: cell-based. The procedure: Apoptosis assays—For nuclear morphological change analysis, cells were trypsinized, washed with PBS, fixed with 3.7% paraformaldehyde, and stained with DAPI (4,6-diamidino-2-phenylindole) (50 μg/ml) to visualize the nuclei by UV-microscopy. The percentages of apoptotic cells were determined by counting 300 GFP-positive cells, scoring cells having nuclear fragmentation and/or chromatin condensation.
DAPI staining was used to study the apoptotic effect of TR3/Bcl-2 interaction. 293T cells were transfected with GFP-TR3/ΔDBD alone or together with Bcl-2. After 36 h, nuclei were stained by DAPI and nuclear fragmentation and chromatin condensation were identified. Cells were also stained with anti-Bcl-2 antibody, followed by TRITC-conjugated secondary antibody (Sigma). Bcl-2 and GFP-ΔDBD expression and nuclear morphology were visualized by fluorescence microscopy, and the two images were overlaid. […] But, when Bcl-2 was cotransfected, a significant amount of transfected cells underwent apoptosis. For example, approximately 4% of cells transfected with either TR3/ΔDBD or Bcl-2 were apoptotic, compared to 35% of cell transfected with both. […] Cotransfection of Bcl-2, however, prevented BAX-induced apoptosis in these cells (see FIG. 4). The effect of Bcl-2 on apoptotic potential of TR3/ΔDBD in lung cancer and breast cancer cells was also investigated.

Experiment [3] concerns peripheral blood lymphocytes (PBLs). As to the kind of experiment: Apoptosis of peripheral blood lymphocytes. To be noted: annexin V-staining, transfection. Format: cell-based, human.
Description: Isolation and transfection of human peripheral blood lymphocytes (PBLs)—Leukocyte-enriched buffy coats from San Diego Blood Bank were diluted with 2 volumes of PBS, and PBLs were isolated by centrifuge on Ficoll-paque™ Plus (Amersham Pharmacia biotech). The mononuclear cells were cultured in RPMI containing 10% FBS and 20 μM Hepes. Freshly isolated cells (10^7 cells per transfection) were washed once with PBS containing 0.5% BSA and supernatant was completely discarded so that no residual PBS/BSA covers the pellet. The cells were resuspended in 100 μl of the human T Cell Nucleofector™ solution (Amexa biosystems) and very gently mixed with 1-4 μg DNA in 5 μl. The cell suspension was transferred into a cuvette supplied by Amexa biosystems and electroporated using U-14 program of Nucleofector™ device. The cells were removed from the cuvette quickly by adding 500 μl of the pre-warmed RPMI medium containing 10% FBS and 20 μM Hepes and transferred into 12 well plates containing 1.5 ml of pre-warmed culture medium.

T1 sequence (P10415 1-80): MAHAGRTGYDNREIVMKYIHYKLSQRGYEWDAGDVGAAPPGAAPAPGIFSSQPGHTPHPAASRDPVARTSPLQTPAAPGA

B1: TR3/ΔDBD: TR3 mutant with the DNA binding domain removed; used as GFP fusion (protein)
chain: MPCIQAQYGTPAPSPGPRDHLASDPLTPEFIKPTMDLASPEAAPAAPTALPSFSTFMDGYTGEFDTFLYQLPGTVQPCSSASSSASSTSSSSATSPASASFKFEDFQVYGCYPGPLSGPVDEALSSSGSDYYGSPCSAPSPSTPSFQPPQLSPWDGSFGHFSPSQTYLVLHRLQCARGFGDWIDSILAFSRSLHSLLVDVPAFACLSALVLITDRHGLQEPRRVEELQNRIASCLKEHVAAVAGEPQPASCLSRLLGKLPELRTLCTQGLQRIFYLKLEDLVPPPPIIDKIFMDTLPF
modifications: left off: large carriers; small tags and cut ends
notes: used as GFP fusion
As to B1, the GFP-TR3/ΔDBD subcellular localization result (in experiment [1]; with ZR-75-1 cells) was “targeted to mitochondria” throughout. Moreover, the cytochrome c release entry was “caused release of cytochrome c from the mitochondria” in the experiment on ZR-75-1 cells; “did not cause any release of cytochrome c” in the experiment on 293T cells (absence of Bcl-2 cotransfection); “did not induce cyt c release” with 293T cells (co-expression with Bcl-2/Y108K); “did not occur” in the experiment on 293T cells (co-transfection with Bcl-2/ΔTM); “significant release of cytochrome c” with 293T cells (cotransfection with Bcl-2). The “interaction with Bcl-2/1-80 (Co-IP)” value with Bcl-2/1-80 was “strongly interacted”. For the same molecule, the “interaction with Bcl-2/ΔLoop (Co-IP)” value in the experiment with Bcl-2/ΔLoop was “did not”. For the same molecule, the “TR3/ΔDBD and Bcl-2 colocalized cells displaying diffuse cyt c staining” value with 293T cells (cotransfected with Bcl-2) is on record as “Approximately 75%”. Moreover, the apoptosis entry in experiment [2] (MCF-7, absence of Bcl-2) is listed as “did not show any apoptotic effect”; in experiment [2] (MCF-7, co-expression of Bcl-2), “strong induction of apoptosis”. Also, in experiment [3], the PBL apoptosis result is “potently induced PBL apoptosis”.
